Consider one molecule from patent US20210115121A1.

The target of the test is human Tau P301S from brain of P301S Tau transgenic mice (human) (UniProt P10636). The test can be described thus: cell-based or functional assay.
Sequence of human Tau P301S from brain of P301S Tau transgenic mice (human) (P10636 other isoform, or with tags, fused parts or gaps P301S P301S P301S P301S): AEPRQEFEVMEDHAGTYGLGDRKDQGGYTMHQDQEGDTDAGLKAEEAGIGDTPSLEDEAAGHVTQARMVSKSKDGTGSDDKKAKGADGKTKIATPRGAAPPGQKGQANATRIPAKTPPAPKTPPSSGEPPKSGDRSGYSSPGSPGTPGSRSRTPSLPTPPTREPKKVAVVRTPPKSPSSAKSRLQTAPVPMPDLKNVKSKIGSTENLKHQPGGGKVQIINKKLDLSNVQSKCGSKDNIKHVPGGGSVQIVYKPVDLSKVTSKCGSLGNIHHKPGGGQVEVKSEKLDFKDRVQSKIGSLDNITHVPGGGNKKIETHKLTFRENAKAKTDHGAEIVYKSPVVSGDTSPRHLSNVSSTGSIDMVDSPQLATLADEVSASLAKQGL

B1: AB1 having a rat VL of SEQ ID NO: 7 and a rat VH of SEQ ID NO.:8 (antibody, IgG1, V domains shown)
VH: EVKLEESGPGLMQPSETLSLTCTVSGFSLTSNDIAWVRQPLGKGLVWMGTIWTDGSTNYNSAVQSRLSISRDTSKSQFFLKMNSLQPEDTGTYYCARHRLYYGAFDYWGQGTMVTVS
VL: DIVMTQTPVSLSVTLGDQASISCRSSQSLEYSDGYTYLEWYLQKPGQSPQLLIYEVSNRFSGVPDRFIGSGSGTDFTLKISRVEPEDLGVYYCFQATHNPYTFGAGTKLEIK
On to B1, for which the IC50 (cellular Tau aggregation assay) worked out at 2 nM and the Imax (maximal efficacy at 300 nM, cellular Tau aggregation assay) was determined as 93%.
